The labels stand for the following.
B1: hN1S3-146 (scFv, V domains shown)
VH: EVQLVQSGPEVKKPGTSVKVSCKASGFTFTSSAVQWVRQARGQRLEWIGWIVVGSGNTNYAQKFQERVTITRDMSTSTAYMELSSLRSEDTAVYYCVADTVYWGKGTLVTVSS
VL: QAVLTQPSSVSEAPRQRVTISCSGSSSNIGKNAVNWYQQLPGKAPKLLIYYDDLMPSGVSDRFSGSKSGTSASLAISGLQSEDEADYFCAAWDDSLSGWVFGGGTKLTVL
notes: phage scFv
B2: N1wc106 (scFv, V domains shown)
VH: QVQLVQSGAEVKRPGASVNLSCKASGYSFSRYYIHWVRQAPGQGLELMGRINPGGGTTTYAQKFQGRVTLSRDTSTNTIFMELNGLTSEDTAMYYCARSNYDILAGYGPDAFDFWGRGTLVTVSS
VL: QAVLTQPSSVSGAPGQRVTISCTGSSSNIGADNDVHWYQKFPGTAPKLLIFSNNNRPSGVPDRFSGSKSGTSASLAITGLQADDEADYYCQSYDSGLTRELFGGGTKLTVL
notes: phage scFv
B3: N1wc142 (scFv, V domains shown)
VH: B2 VH with Q1E, R13K, L120M
VL: QSVLTQPPSVSGAPGQRVTISCIGSNSNIGAGHDVHWYQQFPGTAPKLLIYDNTNRPSGVPDRFSGSKSGTSVSLAITGLQAEDEADYYCQSYDSSLGEVFGGGTKLTVL
notes: phage scFv
B4: N1wc33 (scFv, V domains shown)
VH: EVQLVESGGDLVQPGGSLRLSCAASGFTFSDSWMHWVRQVPGKGLEWVSHIGIDGITTNYADSVKGRFTISRDNAKNTLYLQMNNLRAEDTAVYYCARNVGWESRPWGQGTLVTVSS
VL: SYVLTQPPSASGAPGQRVTISCSGSDSNIGRNTVNWYQQQLPGTAPTLLIYTNNQRPSGVPDRFSGSKSGTSASLAISGLQSGDEADYYCAAWDDSLNAYFFGPGTKLTVL
notes: phage scFv
B5: N1wc99 (scFv, V domains shown)
VH: QVQLVQSGAEVKKPGASVKVSCKASGYTFTSYGISWVRQAPGQGLEWMGWISAYNGNTNYAQKLQGRVTMTTDTSTSTAYMELRSLRSDDTAVYYCARLASRAFDIWGRGTLVTVSS
VL: QSVLTQPASVSGSPGQSITISCTGTSSDVGGYNYVSWYQQHPGKAPKLMIYEGSKRPSGVSNRFSGSKSGNTASLTISGLQAEDEADYYCSSYTTRSTRVFGGGTKLTVL
notes: phage scFv
B6: N1wc145 (scFv, V domains shown)
VH: B5 VH with Q1E, Q6E, S31T, A53T, N59K, L99D, S101R, R102K
VL: B5 VL with Q1H, S2V, V3I, A8R
notes: phage scFv
B7: N1wc152 (scFv, V domains shown)
VH: QVQLVQSGGGLVQPGGSLRLSCGASGFTFSSHWMSWVRRPPGRGLEWVANINEGGSAEYYADSLKGRFTISRDNAKNSLFLQMDSLRAEDTAVYYCVRDQFHSNYDWGQGTMVTVSS
VL: QAVLTQPSSVSGAPGQRVTISCTGSSSNIGAPFDVHWYQQLPGTAPKLLIYGNSNRPSGVPDRFSGSKFGTSASLAITGLQAADEADYYCQSYDSSLSGWVFGGGTKLTVL
notes: phage scFv
B8: N1wc104 (scFv, V domains shown)
VH: QVQLQESGPGLVKPSGTLSLTCAVSGVSLATNNWWLWVRQSPGKGLEWIGEIYHSGYTNYNPSLKSRVTISVDKSSNQLSLDLRSITAADTAVYYCARRYCDNGVCYPFDHWGQGTMVTVSS
VL: SYVLTQPPSVSEAPRQTVTISCSGNSFNIGRYPVNWYQQLPGKAPKLLIYYNNLRFSGVSDRFSGSKSGTSASLAIRDLLSEDEADYYCSTWDDTLKGWVFGGGTKLTVL
notes: phage scFv
B9: hN1S3-052 (scFv, V domains shown)
VH: QVQLVQSGAEVKKPGASVRISCKTSGFTFTSYFIHWVRQAPGQRPEWMGVINPSRGNADYAPRFRGRVTMTRDKSTHTVYMDLKSLRSDDAAIYYCARDRLGGLLDYYDSSDSSKNFDAFDFWGQGTLVTVSS
VL: QAVLTQPSLASGTPGQRVTISCSGGSSNIGRHTVNWYQQLPGAAPKLLMHSSDQRPSGVPDRFSGSKSGTSASLAISGLQSEDEADYYCAAWDASLKNWVFGGGTKLTVL
notes: phage scFv
B10: hN1S3-067 (scFv, V domains shown)
VH: B9 VH with Q1E
VL: NFMLTQPHSVSESPGKTVIISCTRSSGSIASNYVQWLQQRPGSSPTTVIYDDNRRPSGVPDRFSGSIDGSSNSASLTISGLKTEDEADYYCQSYDRFDHVVFGGGTKLTVL
notes: phage scFv
B11: hN1S3-073 (scFv, V domains shown)
VH: B9 VH
VL: DIQMTQSPSSLSAFVGDRVTITCRASQGINNYLAWFQQKPGKAPKSLIYAASTLRSGVPPRFSGSGSGTDFTLTISSLQPEDFATYYCQQYDSYPHTFGQGTRLEIK
notes: phage scFv
B12: N1wc158 (scFv, V domains shown)
VH: EVQLVQSGAEVKKPGASVKVSCKASGYNFTGYYMHWVRQAPGQGLEWMGWINPNSGGTNYAQKFQGRVTMTRDTSISTAYMELSRLRSDDTAVYYCATDSFDYWGRGTLVTVSS
VL: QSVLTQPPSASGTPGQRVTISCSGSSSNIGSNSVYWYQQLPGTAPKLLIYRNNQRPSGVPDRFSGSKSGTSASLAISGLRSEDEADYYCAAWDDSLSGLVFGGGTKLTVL
notes: phage scFv
B13: N1wc110 (scFv, V domains shown)
VH: B12 VH with R106Q, L109M
VL: QSVVTQPPSASGSPGQRVTIACSGSSSNIGSNTVNWYQHVPGTAPKLLIYNNNQRPSGVQDRFSGSKSDTSASLAISGLQAEDEAVYYCATWDDSLIGLAFGGGTKLTVL
notes: phage scFv
B14: hN1S3-126 (scFv, V domains shown)
VH: B12 VH with R106Q
VL: SYVLTQPPSASGAPGQRVTISCSGSISNIGDNTVNWYQHLPRTAPKLVIYSDVQRPSGVPERFSGSKSGTSASLVISGLQAEDEADYYCASWDDSLDGVFFGGGTKLTVL
notes: phage scFv
B15: N1wc103 (scFv, V domains shown)
VH: B12 VH with E1Q, V5Q, M81V
VL: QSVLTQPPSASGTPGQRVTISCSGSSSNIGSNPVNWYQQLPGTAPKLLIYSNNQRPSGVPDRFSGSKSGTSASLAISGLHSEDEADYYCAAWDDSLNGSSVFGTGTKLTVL
notes: phage scFv
B16: hN1S3-050 (scFv, V domains shown)
VH: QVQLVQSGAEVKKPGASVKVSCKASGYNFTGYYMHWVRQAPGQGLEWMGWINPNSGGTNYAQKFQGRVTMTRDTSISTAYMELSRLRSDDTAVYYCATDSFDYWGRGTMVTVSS
VL: LPVLTQPPSASGTPGQRVTISCSGRSSNIGSNFVYWYQQLPGTAPKLLIYRNNQRPSGVPDRFSGSKSGTSASLAISGLRSEDEADYYCATWDDNLSGVVFGGGTKLTVL
notes: phage scFv
B17: hN1S3-174 (scFv, V domains shown)
VH: B12 VH with R106Q, L109T
VL: QSVLTQPPSVSGAPGQRITISCTGSSSNIGAGYDVHWYQQLPGTAPKLLIYGNSYRPSGVPDRFSGSKSGTSASLAITGLQAEDEADYYCQSYDSSLTGSIFGGGTKLTVL
notes: phage scFv
B18: hN1S3-113 (scFv, V domains shown)
VH: B12 VH
VL: SYVLTQPPSASGTPGQRVTISCSGSSPNIGSNTVNWYQQLPGTAPKLLIYTNNQRPSGVPDRFSGSKSATSASLAISGLQFDDEADYFCAAWDDSLLGVVFGGGTKVTVL
notes: phage scFv
B19: hN1S3-010 (scFv, V domains shown)
VH: B12 VH with T69I, R87T, L109M
VL: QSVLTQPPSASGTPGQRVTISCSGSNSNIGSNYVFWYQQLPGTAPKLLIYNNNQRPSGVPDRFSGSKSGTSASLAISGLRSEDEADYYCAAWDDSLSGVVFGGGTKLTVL
notes: phage scFv
B20: N1wc140 (scFv, V domains shown)
VH: QVQLQQSGAEVKKPGSSVKVSCRASGGTFSNYAISWVRQAPGQGLEWMGRIIPIFGGAHYAQKLQGRVSITADESTSTAHMELSSLRSEDAAVYYCASGAYYDVMGNYPYSGMDVWGRGTLVTVSS
VL: SYVLTQPPSVSVSPGQTAKITCGGDKIETKSVHWYQQKPGQAPVLVIYEDTKRPSGISERLSGSSAGTVATLTITGAQVDDEADYFCYSTDATGTERVFGGGTKLTVL
notes: phage scFv
B21: N1wc48 (scFv, V domains shown)
VH: QVQLVQSGAEVKKPGATVKISCKVSGYTFTDYYIHWVQQAPGKGLEWMGLVDPEDGETIYAEKFQGRVTIIADTSTDTAYMELSSLRSEDTAVYYCATGPFRLDSWGQGTMVTVSS
VL: QSVLTQPPSVSGAPGQRVTISCTGSSSNIGAGYDVHWYQQLPGSAPKLLIYGNNNRPSGVPDRFSGSKSGTSASLAITGLQAEDEADYYCQSFDNRLSDFNVFGTGTKVTVL
notes: phage scFv
B22: N1wc137 (scFv, V domains shown)
VH: QVQLVQSGAEVKKPGASVKVSCKASGYTFTNYGLSWVRQAPGQGLEWMGWISGYNDNTSYAQKFQDRITMTTDTSTSTASMELRSLRSDDTAVYYCAFSYYDSSGYFNWGQGTMVTVSS
VL: QAVLTQPSSVSGAPGQRVTVSCTGSSSNIGTGYAVHWYQQLPGTAPRLLIFGNNNRPSGVPDRFSGSKSGTSASLVITGLQAEDEADYYCQSFDTLSGSRVFGGGTKVTVL
notes: phage scFv
B23: N1wc112 (scFv, V domains shown)
VH: EVQLVESGGGLAQPGKSLRISCAASGFTFGDYAMTWVRQAPGKGLEWVSSISGSGSGTYYTDSVKGRFAISRDNSKNTLYPQMNSLAAEDTAIYFCAKDQTDVTIRDFDYWGRGTLVTVSS
VL: SYELTQPPSVSVAPGQTARISCGGDNLGRKSVHWYQQKPGQAPVLVIYEDSKRPSGIPERFSGSSSGTMATLTISGAQVEDEADYYCYSTDSSGNHRVFGGGTKVTVL
notes: phage scFv

Numbering of substitutions follows the chain as printed.

The assay addresses T1, human full-length Notch1 with C-terminal FLAG tag, stably expressed on 293 FlpIn (TREx) cells (human, UniProt P46531 19-2555).
T1 construct: tetracycline/doxycycline-induced expression from pcDNA5/FRT/TO-HN1+FLAG; also called hN1; 293_N1
As to the kind of experiment: FACS, phage scFv.
As for B1, the binding result is “binds”. Take B2: the binding result is “binds”.

Take B3: the binding result is “binds”. In the case of B4, the binding result is given as “binds”. For the molecule B5, the binding result was “binds”. Take B6: the binding result is given as “binds”. Turning to B7, the binding result is on record as “binds”. Turning to B8, the binding result is “binds”. As for B9, the binding result is “binds”. As for B10, the entry is “binds”. As for B11, the entry is “binds”; as for B12, “binds”. As for B13, the entry is “binds”. Consider B14, for which the binding result is on record as “binds”. In the case of B15, the binding result was “binds”. As for B16, the binding result is reported as “binds”. B17: the binding result is given as “binds”. As for B18, the entry is “binds”. B19: the binding result is “binds”. As for B20, the binding result was “binds”. For B21, the binding result is reported as “binds”. B22: the binding result is reported as “binds”. Turning to B23, the binding result is on record as “binds”.
